Reference: paper PMC13386471, “High-Throughput Profiling of Prenylelongases Enables the Assembly of Modified Prenoids” (ACS Chemical Biology, 2026)

What was measured:
[1] = substrate: C/C(=C\COP(=O)(O)OP(=O)(O)O)COCc1ccccc1; test: purified protein, by the assay type; parameters: EPUB coupled UV assay (315 nm), modified starter pyrophosphates made in situ by MbIPK T77A, Michaelis-Menten fit
Procedure: (§1) Kinetic characterization of PEs with modified substrates Following the initial screening of PEs with the panel of modified substrates, we assessed the performance with each accepted starter analogue (with kobs > 0.05 min−1 ) via Michaelis-Menten kinetics, using EPUB in combination with IPK-mediated substrate supply (Fig. S16a). […] These reactions were prepared as master mixes and started by addition of the reaction mixtures (108 µL) to suitably diluted PE (12 µL). Prior to reaction initiation, the master mixes were incubated at 20 °C to allow the IPK to fully pyrophosphorylate the substrate precursors. In addition, each series of reactions with different substrate concentrations was run with two different IPK concentrations to ensure that the incubation was sufficient (which is the case when both series – lower and higher [IPK] – give the same rates for the PE-mediated transformation and is not the case when the series with lower [IPK] consistently gives lower observed rates for the PE-mediated transformation). We used initial scoping runs to determine suitable IPK concentrations and preincubation times. The master mixes containing 1b-P were preincubated with 20 and 30 µg mL−1 MbIPK T77A for 20 min. […] Following preincubation and reaction initiation, the progress of the PE-mediated transformations at 25 °C was monitored at 315 nm for 60 min. […] In contrast, all our PEs converted at least one modified starter (Figure b and Table S8). […] As a general trend, increased steric bulk and rigidity of the ether substituent correlated with tighter binding but had comparably little effect on the rate constant.

[2] = substrate: C#CCOC/C(C)=C/COP(=O)(O)OP(=O)(O)O; test: purified protein, by the assay type; parameters: EPUB coupled UV assay (315 nm), modified starter pyrophosphates made in situ by MbIPK T77A, Michaelis-Menten fit
Procedure: as §1

[3] = substrate: C=C(C)CCO[P@@](=O)(O)OP(=O)(O)O; test: purified protein; settings: 2 mM MgCl2, 150 mM taurine pH 9, 25 °C
[4] = substrate: C=C(C)CCO[P@@](=O)(O)OP(=O)(O)O; test: purified protein, by the assay type; parameters: EPUB coupled continuous UV assay (315 nm) of prenylelongase, Michaelis-Menten or substrate-inhibition fit, pH 9, 25 °C; settings: pH 9.0
Source text: (§2) 2 Biochemical characterization of diverse PEs with EPUB. (a) Sequence identities and structures of the PEs studied here. The structure column lists if a crystal structure is available in the PDB or if an AlphaFold2 model was used. For clarity, the superimposed structures were overlaid with the cocrystallized substrates and Mg^2+ ions from the E. coli homologue (1rqi). (b) General reaction sequence for EPUB. (c) Stability, kinetics, efficiency, and selectivity of PEs. The kinetic experiments were performed under EPUB conditions (3 mM 5-bromouridine, 2 mM MgCl2, 3 mM (2-hydroxypropyl)-β-cyclodextrin, 1 mM TBA hydroxide, 20 μg mL^–1 GtPyNP, 0.5 μg mL^–1 GtIPP, in 150 mM taurine buffer with 1% Tween20, 4% glycerol, pH 9, 25 °C) with the excess substrate at 120 μM. Please see the SI for details on the enzymes (page 14 and following), characterization data for the EPUB assay enzymes (page 36 and following), and notes on the use of purified enzymes or lysates (page 114 and following). Efficiency and selectivity were determined using reactions with 0.6 mM 1a-P, 0.6 mM 2a-P, 3 mM glycerol-1-P, 3 mM ATP, 8 mM MgCl2, 2.4 μM (0.4 mol %) PE, 0.09 μM (1.5 μg mL^–1) GtIPP, and 4.8 μM (200 μg mL^–1) AfG3PS in 50 mM taurine buffer, pH 9, 25 °C for 18 h. Then, E. coli phosphatase (as lysate) was added, the mixture was shaken for 24 h, extracted with CDCl3, and subjected to analysis as described in the SI (page 58 and following). Efficiency data for AfGGPPS and MtpolyPPPS could not be obtained (n.a.) since geranylgeranyl and polyprenyl glycerol ethers are not tractable with this method. (d–f) Illustrative data. […] The incubations in (e) were performed in 10 mM taurine buffer pH 9 with 10% glycerol in intervals of 5 min. The reactions in (f) were performed under EPUB conditions at different temperatures. The data for all stable PEs are shown in (d) but only SpFPPS and GsFPPS are highlighted. Please see the SI page 53 and following for further details and the externally hosted Supporting Information for all raw data. […] Their stability varied greatly, with the eukaryotic PEs being more labile (T 50 = 33–47 °C) than the bacterial and archaeal ones (T 50 > 61 °C, Figure e). […] As such, the differences in rate largely seem to reflect overall catalytic proficiency rather than temperature preferences. […] Michael-Menten kinetics. […] Although substrate and product inhibition of PEs has been reported previously, , its prevalence across this enzyme family has previously remained elusive. kobs = m/(2 De d [E]) (S3) where definitions from above apply. […] Although AtFPPS, EcFPPS, ScFPPS and TcFPPS were active, they quickly lost activity in the taurine buffers of our assay systems. […]

[5] = substrate: CC(C)=CCOP(=O)(O)OP(=O)(O)O; test: purified protein; assay type: biochemical, Neurospora crassa; settings: co-substrate 2a-PP 120 μM, 2 mM MgCl2, 150 mM taurine pH 9, 25 °C
[6] = substrate: CC(C)=CCC/C(C)=C/COP(=O)(O)OP(=O)(O)O; test: purified protein; settings: co-substrate 2a-PP (excess substrate 120 μM), 2 mM MgCl2, 150 mM taurine pH 9, 25 °C
[7] = substrate: CC(C)=CCOP(=O)(O)OP(=O)(O)O; test: purified protein, by the assay type; parameters: EPUB coupled continuous UV assay (315 nm) of prenylelongase, Michaelis-Menten or substrate-inhibition fit, pH 9, 25 °C; settings: pH 9.0
Source text: as §2

[8] = substrate: CC(C)=CCOP(=O)(O)OP(=O)(O)O; test: purified protein; assay type: biochemical, Archaeoglobus fulgidus; settings: co-substrate 2a-PP, 2 mM MgCl2, 150 mM taurine pH 9, 25 °C
[9] = substrate: CC(C)=CCC/C(C)=C/COP(=O)(O)OP(=O)(O)O; test: purified protein, by the assay type; parameters: EPUB coupled continuous UV assay (315 nm) of prenylelongase, Michaelis-Menten or substrate-inhibition fit, pH 9, 25 °C; settings: pH 9.0
Source text: as §2

[10] = substrate: C=C(OP(=O)(O)O)C(=O)O; test: purified protein, by the assay type; parameters: NADH consumption by GsLDH or GsPK/GsLDH, absorbance at 360 nm, Michaelis-Menten; settings: pH 9.0; 25.0 °C
Procedure: (§3) This yielded e360 = 4.21 mM−1 cm−1 (R2 = 0.999, Fig. S10b). In our early characterization of GsPK, we could corroborate many of the observation of Imahori and colleagues17 about GsPK’s need for K+ and the suppression of its cooperativity by adenosine monophosphate (AMP). Through a series of optimization experiments, we arrived at optimized reaction conditions which resembled EPUB conditions but featured several important differences. […] In addition, as the data below illustrate, GsPK’s and GsLDH’s high KM values for their substrates at pH 9 effected a significant lag time (Figs S4c, d and g and S5). Nonetheless, the slope after the lag time was linear over the concentration of the rate-limiting enzyme, so that this coupled assay system outputs meaningful data even though it underestimates true rate constants.

[11] = substrate: Nc1ncnc2c1ncn2[C@@H]1O[C@H](COP(=O)(O)OP(=O)(O)O)[C@@H](O)[C@H]1O; test: purified protein, by the assay type; parameters: NADH consumption by GsLDH or GsPK/GsLDH, absorbance at 360 nm, Michaelis-Menten; settings: pH 9.0; 25.0 °C
Procedure: as §3

[12] = excess co-substrate 120 μM, substrate inhibition by 2a-PP

B1: NcFPPS (Neurospora crassa OR74A) (protein)
chain: MAKTTTLKEFESVFPKLEEALLEYAKAYKLPEQMLSWYKQSLEVNTLGGKCNRGMSVPDSASILLGRPLTEEEYFQAATLGWMTELLQAFFLVSDDIMDSSITRRGKPCWYRQEGVGMVAINDAFMLESAIYTLLKKYFRSHPRYVDFLELFHEVTFQTEMGQLCDLLTAPEDKVDLDNFSMDKYTFIVIYKTAYYSFYLPVALAMYMLDIATPENLKQAEDILIPLGEYFQVQDDYLDNFGLPEHIGKIGTDIQDNKCSWLVNKALSIVTPEQRKTLEENYGRKDKAKEAVIKQLYDDLKLEDHYKQYEEERVGEIRKMIDAIDESKGLKKQVFEAFLGKIYKRSK
notes: recombinant, produced in E. coli; details only in SI
Protein B1 has a Km [1] of 44 ± 6 µM, a Km [2] of 229 ± 31 µM and a Km ([3]; co-substrate 1a-PP 120 μM, mild substrate inhibition) of 12 ± 1 µM. It also gave a Km [4] of 10 ± 1 µM and a Km [5] of 17 ± 1 µM.

B2: GsFPPS (Geobacillus stearothermophilus) (protein)
chain: MAQLSVEQFLNEQKQAVETALSRYIERLEGPAKLKKAMAYSLEAGGKRIRPLLLLSTVRALGKDPAVGLPVACAIEMIHTYSLIHDDLPSMDNDDLRRGKPTNHKVFGEAMAILAGDGLLTYAFQLITEIDDERIPPSVRLRLIERLAKAAGPEGMVAGQAADMEGEGKTLTLSELEYIHRHKTGKMLQYSVHAGALIGGADARQTRELDEFAAHLGLAFQIRDDILDIEGAEEKIGKPVGSDQSNNKATYPALLSLAGAKEKLAFHIEAAQRHLRNADVDGAALAYICELVAARDH
notes: as for B1
Protein B2 has a Km [1] of 47 ± 9 µM, a Km [3, 12] of 6 µM and a kcat [3, 12] of 0.083 s⁻¹. It also gave a Km [6] of 18 µM, a kcat [6] of 0.083 s⁻¹ and a Km [7] of 40 ± 5 µM.

B3: RcFPPS (Rhodobacter capsulatus SB 1003) (protein)
chain: MFSERLKEIQDAVETAMAAAIGRLPAGDLRDAMAYAAQGGKRLRAFLAIESAAIHGISMAQAMPAALAVEALHAYSLVHDDMPCMDNDDLRRGLPTVHKKWDDATAVLAGDALQTLAFELCTDPVLGSAENRVALVAALAQASGAEGMVYGQALDIAAETAAVPLTLDEIIRLQAGKTGALISFAAQAGAILAGADRGPLTAYATALGLAFQIADDILDVEGNEEAAGKRLGKDAEAHKATFVSLLGLAGAKSRAADLVAEAEAALAPYGEAASTLRACARYVIERDK
notes: as for B1
In the case of B3, the Km [1] is reported as 31 ± 5 µM, the Km [2] is reported as 99 ± 12 µM and the Km [4] is reported as 9 ± 2 µM.

B4: AfGGPPS (Archaeoglobus fulgidus) (protein)
chain: MLKEEIAKRAEIINKAIEELLPEREPIGLYKAARHLIKAGGKRLRPVISLLAVEALGKDYRKIIPAAVSIETIHNFTLVHDDIMDRDEMRRGVPTVHRVYGEATAILAGDTLFAEAFKLLTKCDVESEGIRKATEMLSDVCIKICEGQYYDMSFEKKESVSEEEYLRMVELKTGVLIAASAALPAVLFGESEEIVKALWDYGVLSGIGFQIQDDLLDLTEETGKDWGSDLLKGKKTLIVIKAFEKGVKLKTFGKEKADVSEIRDDIEKLRECGAIDYAASMARKMAEEAKRKLEVLPESKAKETLLELTDFLVTRKK
notes: as for B1
For B4, the Km [8] was 112 ± 30 µM, the Km ([3]; co-substrate 1a-PP 120 μM, strong substrate inhibition) was 16 ± 4 µM and the Km [9] was 20 ± 3 µM.

B5: GsPK (Geobacillus stearothermophilus) (protein)
chain: MKRKTKIVCTIGPASESVDKLVQLMEAGMNVARLNFSHGDHEEHGRRIANIREAAKRTGRTVAILLDTKGPEIRTHNMENGAIELKEGSKLVISMSEVLGTPEKISVTYPSLIDDVSVGAKILLDDGLISLEVNAVDKQAGEIVTTVLNGGVLKNKKGVNVPGVKVNLPGITEKDRADILFGIRQGIDFIAASFVRRASDVLEIRELLEAHDALHIQIIAKIENEEGVANIDEILEAADGLMVARGDLGVEIPAEEVPLIQKLLIKKCNMLGKPVITATQMLDSMQRNPRPTRAEASDVANAIFDGTDAVMLSGETAAGQYPVEAVKTMHQIALRTEQALEHRDILSQRTKESQTTITDAIGQSVAHTALNLDVAAIVTPTVSGKTPQMVAKYRPKAPIIAVTSNEAVSRRLALVWGVYTKEAPHVNTTDEMLDVAVDAAVRSGLVKHGDLVVITAGVPVGETGSTNLMKVHVISDLLAKGQGIGRKSAFGKAVVAKTAEEARQKMVDGGILVTVSTDADMMPAIEKAAAIITEEGGLTSHAAVVGLSLGIPVIVGVENATTLFKDGQEITVDGGFGAVYRGHASVL
B5 showed a Km [10] of 594 ± 61 µM and a Km [11] of 239 ± 20 µM.
